Data from the supplement of paper PMC6757056.
± gives the standard deviation of the averaged measurements.

B1: library; a variant is named by its letters at N, in order (parent)
chain: GCUGUCACCGGAAUACCAGCAUCGUCUUGAUGCCCUUGGAAGUCCGGUCUGAUGAGUCCNNNNNGGACGAAACAGC

How the values were obtained:
theophylline [1] = variants of: B1; test: FACS-Seq fitted mean relative fluorescence mCherry/BFP without ligand (log10 relative fluorescence); higher = higher reporter protein expression; conditions: HEK293T, ligand present: no
How it was run: (§1)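 With or without ligand for 48 h, enriched HEK293T libraries carrying a lentiviral ribozyme-switch mCherry reporter and EF1α-BFP were sorted into 6 mCherry/BFP bins. Bin genomic DNA was amplified by PCR, barcoded and sequenced on MiSeq. Fluorescence was taken from normal fits to the resulting bin counts. Each fitted mean of log10(mCherry/BFP) was scaled to five spiked-in control ribozymes.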

theophylline [2] = variants of: B1; test: normalized RNA/DNA level with ligand (relative to sTRSVctl = 100) (log10 (% of sTRSVctl)); higher = less ribozyme self-cleavage, higher mRNA level; conditions: ligand concentration (+) RNA-Seq: 5 mM, HEK293T, reporter: mCherry (pCS4076), ligand present: yes
How it was run: (§2)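 Library plasmids carrying ribozyme switches linked to mCherry, or to eGFP in some ligand experiments, were transfected into HEK293T at 4 µg per 6-well well, with any ligand added 1 h earlier. Seventy-two hours on, total RNA was extracted with EDTA and reverse-transcribed, amplified, barcoded and sequenced. RNA level was RNA over DNA reads normalized to a spiked-in non-cleaving sequence or to the top sequences, then scaled and log-transformed. The top set was 25 sequences, the transform was ×100 and log10, and sequences needed ≥100 DNA reads.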

theophylline [3] = variants of: B1; test: normalized RNA/DNA level without ligand (relative to sTRSVctl = 100) (log10 (% of sTRSVctl)); higher = less ribozyme self-cleavage, higher mRNA level; conditions: HEK293T, reporter: mCherry (pCS4076), ligand present: no
How it was run: as §2

theophylline [4] = variants of: B1; test: FACS-Seq fitted mean relative fluorescence mCherry/BFP with ligand (log10 relative fluorescence); ligand concentration (+) FACS-Seq: 1 mM; higher = higher reporter protein expression; conditions: HEK293T, ligand present: yes
How it was run: as §1

Variant | FACS-Seq fitted mean (log10) (theophylline [1]) | normalized RNA/DNA level with ligand (log10) (theophylline [2]) | normalized RNA/DNA level without ligand (log10) (theophylline [3]) | FACS-Seq fitted mean (log10) (theophylline [4])
UGAUG | 0.912 ± 0.0092 | 2.005 ± 0.00081 | 1.91 ± 0.14 | 0.848 ± 0.11
UGAUU | 0.448 ± 0.028 | 1.96 ± 0.071 | 1.7 ± 0.12 | 0.437 ± 0.11
UGAUC | 0.156 ± 0.012 | 1.88 ± 0.045 | 1.91 ± 0.099 | 0.331 ± 0.012
GCCCU | 1.072 ± 0.0027 | 1.97 ± 0.025 | 1.98 ± 0.057 | 0.918 ± 0.027
ACCAG | 0.9579 ± 0.0021 | 1.93 ± 0.028 | 1.83 ± 0.059 | 1.02 ± 0.047
ACCAU | 0.574 ± 0.037 | 1.993 ± 0.011 | 1.86 ± 0.02 | 0.605 ± 0.068
CCCGU | 0.812 ± 0.08 | 1.91 ± 0.23 | 1.894 ± 0.014 | 0.82 ± 0.087
CCCGA | 0.977 ± 0.19 | 1.956 ± 0.018 | 1.93 ± 0.077 | 0.827 ± 0.058
CCCGC | 1.3 ± 0.15 | 2.02 ± 0.021 | 2.088 ± 0.019 | 1.05 ± 0.028
AGAUG | 0.533 ± 0.011 | 1.9309 ± 0.0011 | 1.803 ± 0.017 | 0.4899 ± 0.0023
AGAUA | 0.67126 ± 0.00023 | 2.01 ± 0.027 | 1.61 ± 0.11 | 0.73474 ± 0.00057
AGAUU | 0.511 ± 0.068 | 1.99 ± 0.12 | 1.736 ± 0.01 | 0.627 ± 0.07
UGACG | 0.444 ± 0.13 | 1.977 ± 0.0053 | 1.89 ± 0.031 | 0.53 ± 0.076
UGACU | 1.21 ± 0.077 | 1.9948 ± 0.0009 | 1.87 ± 0.022 | 1.22 ± 0.12
UGACA | 0.298 ± 0.03 | 1.93 ± 0.051 | 1.52 ± 0.048 | 0.527 ± 0.05
UCGAC | 0.96 ± 0.048 | 1.9 ± 0.12 | 1.78 ± 0.059 | 0.965 ± 0.022
UCGAA | 0.342 ± 0.019 | 1.97 ± 0.055 | 1.48 ± 0.066 | 0.951 ± 0.086
UCGAU | 0.605 ± 0.16 | 2.087 ± 0.0041 | 1.78 ± 0.12 | 0.815 ± 0.057

Variant | FACS-Seq fitted mean (log10) (theophylline [1]) | normalized RNA/DNA level with ligand (log10) (theophylline [2]) | normalized RNA/DNA level without ligand (log10) (theophylline [3]) | FACS-Seq fitted mean (log10) (theophylline [4])
ACUAA | 0.266 ± 0.016 | 2.002 ± 0.01 | 1.65 ± 0.2 | 0.391 ± 0.0057
ACUAG | 1.14 ± 0.18 | 2 ± 0.067 | 2.01 ± 0.043 | 1.08 ± 0.11
ACUAC | 0.929 ± 0.041 | 1.98 ± 0.093 | 1.98 ± 0.084 | 0.984 ± 0.13
ACUAU | 0.418 ± 0.065 | 1.982 ± 0.019 | 1.84 ± 0.13 | 0.461 ± 0.041
UCCGA | 0.81 ± 0.1 | 2.12 ± 0.14 | 1.946 ± 0.0097 | 0.6689 ± 0.002
UCCGU | 0.694 ± 0.021 | 2.029 ± 0.013 | 2.03 ± 0.14 | 0.619 ± 0.023
UCCGG | 1.14 ± 0.16 | 1.97 ± 0.12 | 2.05 ± 0.077 | 1.02 ± 0.03
CGAAU | 0.071 ± 0.019 | 1.929 ± 0.0065 | 1.43 ± 0.076 | 0.306 ± 0.0069
CGAAC | 0.992 ± 0.11 | 1.96 ± 0.076 | 1.72 ± 0.026 | 1.02 ± 0.089
CGAAA | 0.0755 ± 0.05 | 1.94 ± 0.023 | 1.31 ± 0.092 | 0.587 ± 0.042
CCCUC | 0.893 ± 0.045 | 2.032 ± 0.012 | 2.11 ± 0.057 | 0.84 ± 0.019
CCCUA | 0.768 ± 0.05 | 2.01 ± 0.077 | 1.872 ± 0.011 | 0.751 ± 0.022
CCCUU | 1.13 ± 0.16 | 1.99 ± 0.035 | 1.89 ± 0.049 | 1.07 ± 0.036
UCUCC | 0.732 ± 0.037 | 1.93 ± 0.04 | 1.95 ± 0.023 | 0.7862 ± 0.0054
ACGAA | 0.287 ± 0.046 | 1.97 ± 0.098 | 1.51 ± 0.045 | 0.661 ± 0.025
ACGAG | 0.428 ± 0.049 | 2.05 ± 0.026 | 1.85 ± 0.073 | 0.448 ± 0.017
ACGAC | 1.26 ± 0.14 | 1.981 ± 0.0072 | 1.834 ± 0.018 | 1.19 ± 0.2
ACGAU | 0.425 ± 0.067 | 2.06 ± 0.059 | 1.69 ± 0.15 | 0.552 ± 0.049
